Assay results published in patent CN109734806A (ANHUI ANKE BIOTECHNOLOGY GROUP CO LTD, dated 2019).

How the values were obtained:
[1] = molecular target: T1, 人TIGIT (膜表达人TIGIT稳转细胞株DG44-TIGIT) (human, UniProt Q495A1 22-244); assay: FACS blocking on DG44-TIGIT cells, competitor rhCD155-cFc-647 (1 ug/ml)
T1 construct: whole, on cells; also called 细胞表面的TIGIT蛋白; huTIGIT
T1 sequence (looked up): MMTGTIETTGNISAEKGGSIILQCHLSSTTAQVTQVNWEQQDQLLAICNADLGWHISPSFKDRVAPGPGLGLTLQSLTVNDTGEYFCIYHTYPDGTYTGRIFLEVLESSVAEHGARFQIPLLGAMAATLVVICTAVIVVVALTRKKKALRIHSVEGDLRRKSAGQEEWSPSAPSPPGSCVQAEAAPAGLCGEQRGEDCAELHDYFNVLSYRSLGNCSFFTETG

[2] = molecular target: T2, rhTIGIT-Avi-His-bio (human, UniProt Q495A1 22-130, biotin linked to the Avi tag by BirA); assay: SPR (Biacore T200), rhTIGIT-Avi-His-bio captured on SA chip, antibody as analyte
T2 construct: range 22-130; Biotinylated form of rhTIGIT-Avi-His, captured on SA chip for SPR; also called 生物素标记的抗原rhTIGIT-Avi-His-bio; not shown: C-terminal Avi tag (biotinylated) and His tag from vector pCD-Avi-His
T2 sequence (looked up): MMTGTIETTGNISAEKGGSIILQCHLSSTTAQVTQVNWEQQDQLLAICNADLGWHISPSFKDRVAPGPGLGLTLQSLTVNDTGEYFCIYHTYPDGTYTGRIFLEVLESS

[3] = molecular target: T1, 人TIGIT (膜表达人TIGIT稳转细胞株DG44-TIGIT); assay: FACS binding to DG44-TIGIT cells
[4] = molecular target: T3, rhTIGIT-Avi-His (human, UniProt Q495A1 22-130); assay: ELISA, rhTIGIT-Avi-His coated at 0.5 ug/mL, antibody titrated
T3 construct: range 22-130; Expressed in Expi 293 cells, Ni-NTA purified; also called rhTIGIT-Avi-His抗原; not shown: C-terminal Avi tag and His tag from vector pCD-Avi-His
T3 sequence (looked up): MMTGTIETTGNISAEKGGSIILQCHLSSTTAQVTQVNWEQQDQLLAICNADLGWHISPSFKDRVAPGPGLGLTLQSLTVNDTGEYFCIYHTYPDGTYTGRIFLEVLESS

[5] = molecular target: T3, rhTIGIT-Avi-His; assay: ELISA on coated rhTIGIT-Avi-His
[6] = molecular target: T2, rhTIGIT-Avi-His-bio; assay: SPR, KD of D1Y1A against KD of 3TB3

B1: 3TB3 (antibody, V domains shown)
VH: DVQLQESGPGLVKPSETLSLTCTVSGGSISGGYSWSWIRQPPGKGLEWIGSIVPHRSATSYNPSLKSRVTISVDTSKNQFSLKLSSVTAADTSVYYCARSYGGNRLDYWGQGTLVTVSS
VL: DIVLTQSPATLSLSPGERATLSCRASQGVGIRLSWYQQKPGQAPRLLIYYTAYRATGVPTRFSGSGSGTDFTLTISSLEPEDFAVYYCLQTFGDPYTFGQGTKLEIKR
notes: Parent of D1Y1A; also called 全人源抗人TIGIT单抗3TB3; 野生型3TB3
[1]
  IC50: 0.212 µg/mL
[2]
  Kd: 1.13 nM
[3]
  EC50: 0.0589 µg/mL
[4]
  EC50: 0.0307 µg/mL

B2: TDC8 (antibody, V domains shown)
VH: DVQLQESGPGLVKPSETLSLTCTVSGGSISSKGFTWSWIRQPPGKGLEWIGQISPLDSSTSYNPSLKSRVTISVDTSKNQFSLKLSSVTAADTSVYYCARGIWTYLYGFDYWGQGTLVTVSS
VL: DIVLTQSPATLSLSPGERATLSCRASQSIHAGYLAWYQQKPGQAPRLLIYWTNLRATGVPTRFSGSGSGTDFTLTISSLEPEDFAVYYCLQLMRYPPTFGQGTKLEIKR
notes: also called 全人源抗人TIGIT单抗TDC8
[1]
  IC50: 0.308 µg/mL
[3]
  EC50: 0.0585 µg/mL
[4]
  EC50: 0.293 µg/mL

B3: 5TB10 (antibody, V domains shown)
VH: DVQLQESGPGLVKPSETLSLTCTVSGDSVSDAGVGWNWIRQPPGKGLEWIGTIVPRRGITTYNPSLKSRVTISVDTSKNQFSLKLSSVTAADTSVYYCARVTTAGFDYWGQGTLVTVSS
VL: DIVLTQSPATLSLSPGERATLSCRASQDVKILLNWYQQKPGQAPRLLIYWTSDRATGVPTRFSGSGSGTDFTLTISSLEPEDFAVYYCQQHLDRLPYTFGQGTKLEIKR
notes: also called 全人源抗人TIGIT单抗5TB10
[1]
  IC50: 0.435 µg/mL
[3]
  EC50: 0.0872 µg/mL
[4]
  EC50: 0.754 µg/mL

B4: TBB8 (antibody, V domains shown)
VH: DVQLQESGPGLVKPSETLSLTCTVSGYSISTGYAWSWIRQPPGKGLEWIGSISAFGGNTYYNPSLKSRVTISVDTSKNQFSLKLSSVTAADTSVYYCARTARWIAFDYWGQGTLVTVSS
VL: DIVLTQSPATLSLSPGERATLSCRASQDIGVSLNWYQQKPGQAPRLLIYWTSFRATGVPTRFSGSGSGTDFTLTISSLEPEDFAVYYCQQANGVPLFTFGQGTKLEIKR
notes: also called 全人源抗人TIGIT单抗TBB8
[1]
  IC50: 0.563 µg/mL
[3]
  EC50: 0.096 µg/mL
[4]
  EC50: 0.28 µg/mL

B5: D1Y1A (antibody, V domains shown)
VH: DVQLQESGPGLVKPSETLSLTCTVSGGSISYWSWIRQPPGKGLEWIGSIATSYNPSLKSRTSVDTSKNQFSLKLSSVTAADTAVYYCARSYGGNRLDYWGQGTLVTVSS
VL: DIVLTQSPATLSLSPGERATLSCRASQGVRLSWYQQKPGQAPRLLIYYYRATGVPARFSGSGSGTDFTLTISSLEPEDFAVYYCLQFPTFGQGTKLEIK
[2]
  Kd: 0.266 nM
[5]
  fold improvement against 3TB3 (ELISA): ~3 fold
[6]
  fold improvement of affinity against 3TB3: ~4 fold
